From US20160287682

System: Notch1, overexpressed in 293T cells

Q: For “Adamts1, V5 tagged, overexpressed in 293T cells”, which “S2 cleavage of Notch1” value is on record?
A: Its value is “Adamts1 blocks S2 cleavage of Notch1”.
